Test results as given in US20130022605A1.

Target: hen egg lysozyme (hen) (UniProt P00698)
Experiment: ELISA on HEL at 3 mg/ml, detection with 9e10 and anti mouse IgG-HRP

hen egg lysozyme (hen), sequence (P00698 19-147): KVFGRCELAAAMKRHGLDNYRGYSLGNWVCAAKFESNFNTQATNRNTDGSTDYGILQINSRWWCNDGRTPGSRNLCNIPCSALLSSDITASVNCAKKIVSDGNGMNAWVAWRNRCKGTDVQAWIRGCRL

ELISA signal (background): 0.069
B1: VH Cκ chain expressed alone (TAR2-5 Cκ) (protein, not shown: small tags and cut ends)
chain: EVQLLESGGGLVQPGGSLRLSCAASGFTFDLYNMFWVRQAPGKGLEWVSFISQTGRLTWYADSVKGRFTISRDNSKNTLYLQMNSLRAEDTAVYYCAKTLEDFDYWGQGTLVTVSS
